This note sets out measurements from patent US20200339678A1 (RIGEL PHARMACEUTICALS, published 2020).

The target in the assay is T1, His-tagged recombinant Mouse TIGIT (mouse, UniProt P86176 29-148, limits assumed).
T1 construct: not shown: His tag
T1 sequence (looked up): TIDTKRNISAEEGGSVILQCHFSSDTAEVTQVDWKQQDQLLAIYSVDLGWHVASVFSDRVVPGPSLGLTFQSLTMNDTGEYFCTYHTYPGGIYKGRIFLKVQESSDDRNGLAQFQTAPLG
Briefly: ELISA, coated His-tagged mouse TIGIT. On the procedure:
Binding affinities for antigen binding to anti-TIGIT monoclonal antibodies were determined by ELISA. […] Antibodies to be tested were diluted to 1 μM in PBS buffer containing 1% BSA and diluted 3-fold in a 10-point curve. […] Detection of the secondary antibody was determined using streptavidin-HRP and TMB reagent. All assays were performed at room temperature. Curve-fitting software was used to determine the EC₅₀ for each antibody.

B1: Ab11 (Fab, V domains shown)
VH: EVQLLESGGGLVQPGGSLRLSCAASGFTFSSYGMHWVRQAPGKGLEWVASISSNGGYTSYADSVKGRFTISRDNSKNTLYLQMNSLRAEDTAVYYCARVPYGYWIDYWGQGTLVTVSS
VL: not shown
notes: ARV set
Regarding B1, the EC50 (usually the midpoint of the concentration-response curve) came to 359 nM.

B2: Ab88 (Fab, V domains shown)
VH: EVQLLESGGGLVQPGGSLRLSCAASGFTFSSYSMSWVRQAPGKGLEWVASISSSAGTTSYADSVKGRFTISRDNSKNTLYLQMNSLRAEDTAVYYCARVPYGVWIDYWGQGTLVTVSS
VL: not shown
notes: ARV set
Take B2: the EC50 worked out at 407 nM.

B3: Ab35 (Fab, V domains shown)
VH: EVQLLESGGGLVQPGGSLRLSCAASGFTFSSYGMHWVRQAPGKGLEWVASISSSSGYKYYADSVKGRFTISRDNSKNTLYLQMNSLRAEDTAVYYCARVPYSYWMDYWGQGTLVTVSS
VL: not shown
notes: ARV set
Turning to B3, the EC50 came to 357 nM.

B4: Ab5 (Fab, V domains shown)
VH: EVQLLESGGGLVQPGGSLRLSCAASGFTFSDYSMNWVRQAPGKGLEWVALIKSNSGSTSYADSVKGRFTISRDNSKNTLYLQMNSLRAEDTAVYYCARGPYDVWMDYWGQGTLVTVSS
VL: not shown
notes: ARG set
B4: the EC50 came to 322 nM.

B5: Ab120 (Fab, V domains shown)
VH: EVQLLESGGGLVQPGGSLRLSCAASGFTFSSYSMNWVRQAPGKGLEWVSSINSNAGTIYYADSVKGRFTISRDNSKNTLYLQMNSLRAEDTAVYYCARVPYDYWIDYWGQGTLVTVSS
VL: not shown
notes: ARV set
Turning to B5, the EC50 was determined as 254 nM.

B6: Ab37 (Fab, V domains shown)
VH: EVQLLESGGGLVQPGGSLRLSCAASGFTFSSYGMNWVRQAPGKGLEWVSDINSNSGSTSYADSVKGRFTISRDNSKNTLYLQMNSLRAEDTAVYYCARGPYGVWLDYWGQGTLVTVSS
VL: not shown
notes: ARG set
On to B6, for which the EC50 came to 221 nM.

B7: Ab126 (Fab, V domains shown)
VH: EVQLLESGGGLVQPGGSLRLSCAASGFTFSSYAMHWVRQAPGKGLEWVASISSSTGSIGYADSVKGRFTISRDNSKNTLYLQMNSLRAEDTAVYYCARVPYSYWMDYWGQGTLVTVSS
VL: not shown
notes: ARV set
As for B7, the EC50 was determined as 64.1 nM.

B8: Ab196 (Fab, V domains shown)
VH: EVQLLESGGGLVQPGGSLRLSCAASGFTFSSYSMNWVRQAPGKGLEWVSSIKGSAGTTSYADSVKGRFTISRDNSKNTLYLQMNSLRAEDTAVYYCAREPYSVWMDYWGQGTLVTVSS
VL: not shown
notes: ARE set
On to B8, for which the EC50 was 19.5 nM.

B9: Ab106 (Fab, V domains shown)
VH: EVQLLESGGGLVQPGGSLRLSCAASGFTFSSYAMNWVRQAPGKGLEWVASIKSSTGTISYADSVKGRFTISRDNSKNTLYLQMNSLRAEDTAVYYCAREPYSVWIDYWGQGTLVTVSS
VL: not shown
notes: ARE set
With B9, the EC50 was 125 nM.

B10: Ab62 (Fab, V domains shown)
VH: EVQLLESGGGLVQPGGSLRLSCAASGFTFSSYSMSWVRQAPGKGLEWVASISSSAGYSYYADSVKGRFTISRDNSKNTLYLQMNSLRAEDTAVYYCARVPYDVWIDYWGQGTLVTVSS
VL: not shown
notes: ARV set
With B10, the EC50 was 361 nM.

B11: Ab30 (Fab, V domains shown)
VH: EVQLLESGGGLVQPGGSLRLSCAASGFTFSSYGMHWVRQAPGKGLEWVASIKSNSGNTGYADSVKGRFTISRDNSKNTLYLQMNSLRAEDTAVYYCARVPYSVWMDYWGQGTLVTVSS
VL: not shown
notes: ARV set
Turning to B11, the EC50 turned out to be 135 nM.

B12: Ab9 (Fab, V domains shown)
VH: EVQLLESGGGLVQPGGSLRLSCAASGFTFDSYSMHWVRQAPGKGLEWVANIKSSGGYISYADSVKGRFTISRDNSKNTLYLQMNSLRAEDTAVYYCARGPYDVWMDYWGQGTLVTVSS
VL: not shown
notes: ARG set
Turning to B12, the EC50 worked out at 181 nM.

B13: Ab8 (Fab, V domains shown)
VH: EVQLLESGGGLVQPGGSLRLSCAASGFTFSSYAMSWVRQAPGKGLEWVADIKSNGGYTYYADSVKGRFTISRDNSKNTLYLQMNSLRAEDTAVYYCARVPYGYWLDYWGQGTLVTVSS
VL: not shown
notes: ARV set
Regarding B13, the EC50 was determined as 149 nM.

B14: Ab112 (Fab, V domains shown)
VH: EVQLLESGGGLVQPGGSLRLSCAASGFTFSSYAMSWVRQAPGKGLEWVASISSNTGSIYYADSVKGRFTISRDNSKNTLYLQMNSLRAEDTAVYYCARVPYSYWLDYWGQGTLVTVSS
VL: not shown
notes: ARV set
As for B14, the EC50 came to 213 nM.

B15: Ab192 (Fab, V domains shown)
VH: EVQLLESGGGLVQPGGSLRLSCAASGFTFSSYAMHWVRQAPGKGLEWVSSISSDTGYIGYADSVKGRFTISRDNSKNTLYLQMNSLRAEDTAVYYCARVPYDVWIDYWGQGTLVTVSS
VL: not shown
notes: ARV set
Consider B15, for which the EC50 amounted to 295 nM.

B16: Ab58 (Fab, V domains shown)
VH: EVQLLESGGGLVQPGGSLRLSCAASGFTFSSYAMSWVRQAPGKGLEWVSSIKSSAGSSYYADSVKGRFTISRDNSKNTLYLQMNSLRAEDTAVYYCAREPYDVWIDYWGQGTLVTVSS
VL: not shown
notes: ARE set
For the molecule B16, the EC50 amounted to 170 nM.

B17: Ab33 (Fab, V domains shown)
VH: EVQLLESGGGLVQPGGSLRLSCAASGFTFSSYGMHWVRQAPGKGLEWVSDISSNGGTIYYADSVKGRFTISRDNSKNTLYLQMNSLRAEDTAVYYCARGPYGVWLDYWGQGTLVTVSS
VL: not shown
notes: ARG set
On to B17, for which the EC50 was 85.4 nM.

B18: Ab125 (Fab, V domains shown)
VH: EVQLLESGGGLVQPGGSLRLSCAASGFTFSSYSMHWVRQAPGKGLEWVASIKGNAGTTYYADSVKGRFTISRDNSKNTLYLQMNSLRAEDTAVYYCAKVPYDVWMDYWGQGTLVTVSS
VL: not shown
notes: ARV set
In the case of B18, the EC50 turned out to be 150 nM.

B19: Ab164 (Fab, V domains shown)
VH: EVQLLESGGGLVQPGGSLRLSCAASGFTFSSYAMSWVRQAPGKGLEWVSYINSNTGSIGYADSVKGRFTISRDNSKNTLYLQMNSLRAEDTAVYYCAREPYGVWMDYWGQGTLVTVSS
VL: not shown
notes: ARE set
With B19, the EC50 came out at 289 nM.

B20: Ab167 (Fab, V domains shown)
VH: EVQLLESGGGLVQPGGSLRLSCAASGFTFSSYAMHWVRQAPGKGLEWVASISGNAGSSSYADSVKGRFTISRDNSKNTLYLQMNSLRAEDTAVYYCARVPYGVWIDYWGQGTLVTVSS
VL: not shown
notes: ARV set
Take B20: the EC50 was determined as 61.2 nM.

B21: Ab182 (Fab, V domains shown)
VH: EVQLLESGGGLVQPGGSLRLSCAASGFTFSSYSMHWVRQAPGKGLEWVASISSNTGTTGYADSVKGRFTISRDNSKNTLYLQMNSLRAEDTAVYYCARVPYGYWIDYWGQGTLVTVSS
VL: not shown
notes: ARV set
For B21, the EC50 amounted to 200 nM.

B22: Ab63 (Fab, V domains shown)
VH: EVQLLESGGGLVQPGGSLRLSCAASGFTFSSYSMHWVRQAPGKGLEWVASISGSTGTSYYADSVKGRFTISRDNSKNTLYLQMNSLRAEDTAVYYCARVPYGYWIDYWGQGTLVTVSS
VL: not shown
notes: ARV set
With B22, the EC50 stood at 178 nM.

B23: Ab190 (Fab, V domains shown)
VH: EVQLLESGGGLVQPGGSLRLSCAASGFTFSSYAMHWVRQAPGKGLEWVAAIKSSAGYSYYADSVKGRFTISRDNSKNTLYLQMNSLRAEDTAVYYCARVPYGVWIDYWGQGTLVTVSS
VL: not shown
notes: ARV set
With B23, the EC50 is 23.4 nM.

B24: Ab118 (Fab, V domains shown)
VH: EVQLLESGGGLVQPGGSLRLSCAASGFTFSSYAMSWVRQAPGKGLEWVSSINSNAGTSYYADSVKGRFTISRDNSKNTLYLQMNSLRAEDTAVYYCARVPYGYWMDYWGQGTLVTVSS
VL: not shown
notes: ARV set
For B24, the EC50 stood at 110 nM.
